Patent US9562073B2, “Matriptase and u-plasminogen activator substrates and other cleavable moieties and methods of use thereof” (CytomX Therapeutics, Inc., priority 2014, dated 2017)

Molecular target: T1, Human matriptase-1 (Homo sapiens, UniProt Q9Y5Y6)
T1 construct: purchased Research & Diagnostics Systems, Inc
T1 sequence (Q9Y5Y6 1-855): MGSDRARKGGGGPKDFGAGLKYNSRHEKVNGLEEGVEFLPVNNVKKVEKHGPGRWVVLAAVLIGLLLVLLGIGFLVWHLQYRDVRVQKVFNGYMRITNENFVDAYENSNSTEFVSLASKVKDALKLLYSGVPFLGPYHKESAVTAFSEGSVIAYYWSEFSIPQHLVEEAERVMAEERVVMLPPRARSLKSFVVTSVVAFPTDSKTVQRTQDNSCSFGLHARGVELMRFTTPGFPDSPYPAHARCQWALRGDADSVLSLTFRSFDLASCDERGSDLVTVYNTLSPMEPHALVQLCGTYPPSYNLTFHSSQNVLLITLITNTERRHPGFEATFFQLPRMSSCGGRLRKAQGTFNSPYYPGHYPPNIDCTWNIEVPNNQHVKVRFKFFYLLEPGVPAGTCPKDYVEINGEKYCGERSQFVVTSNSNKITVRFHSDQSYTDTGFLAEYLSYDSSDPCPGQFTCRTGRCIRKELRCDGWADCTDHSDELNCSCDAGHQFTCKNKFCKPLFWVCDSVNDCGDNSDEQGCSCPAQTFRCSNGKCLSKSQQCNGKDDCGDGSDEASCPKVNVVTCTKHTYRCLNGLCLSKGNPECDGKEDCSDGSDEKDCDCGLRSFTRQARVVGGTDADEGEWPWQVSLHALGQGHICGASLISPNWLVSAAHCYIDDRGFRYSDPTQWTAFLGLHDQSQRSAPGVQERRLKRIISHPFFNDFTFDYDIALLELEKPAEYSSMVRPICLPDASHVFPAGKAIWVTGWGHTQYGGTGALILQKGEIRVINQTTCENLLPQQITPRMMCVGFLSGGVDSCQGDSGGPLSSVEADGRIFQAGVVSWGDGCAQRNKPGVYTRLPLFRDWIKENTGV
Assay: Substrate cleavage by matriptase-1 on cell-displayed platform scaffold (eCLiPS3.0), flow cytometry
Type: biochemical
Details: substrate displayed in platform scaffold; TBST
Description: Reagents and Strains: Streptavidin-conjugated phycoerythrin (SA-PE) (Invitrogen, Life Technologies) was used without modifications. Human matriptase-1 (Research & Diagnostics Systems, Inc.) was used without modifications. Human plasmin (Haematologic Technologies Inc.) was used without modifications. Human tPA (Molecular Innovations) was used without modifications. YPet fused to the SH3 domain of Mona (monocytic adaptor) was used without modifications. TBST, 50 mM Tris-HCl, 150 mM NaCl, 0.05% Tween20, pH 7.4, was used. […]
Substrate Cleavage and Scaffold Stability Analysis: For screening and clone analysis, overnight cultures were subcultured by dilution into fresh medium (1:50) and grown for 1.5-2 hours. […] After incubation on ice (30 min), cells were washed with PBS and analyzed using a FACSAria™ cell sorter.
For protease cleavage assays, cultures were induced for 1 hour. […] Background hydrolysis of the regions flanking the substrate site (using platform eCLiPS3.0-NSUB_SP described in PCT patent application PCT/US13/54378, filed Aug. 9, 2013 and published as WO 2014/026136 on Feb. 13, 2014), was measured under each reaction condition to ensure that hydrolysis occurred in the designated substrate region. […]
Specifically, for each sample, conversion was determined by flow cytometry analyses using the relationship […]
[formula] allowing substrate conversion to be expressed as […]

## VAGRSMRP (Cleavable moiety)
  cleavage by matriptase-1: cleavage
